Here are results for 1 molecule from article PMC6117920, “Chitinase 3-like 1-CD44 interaction promotes metastasis and epithelial-to-mesenchymal transition through β-catenin/Erk/Akt signaling in gastric cancer” (Journal of Experimental & Clinical Cancer Research : CR, 2018).

Broadly, the Kd is the equilibrium constant for the complex coming apart. The term koff denotes a measure of how fast the partners let go of each other. For orientation: kon means the second-order rate constant of association.

For experiment [1], the target named is T1, recombinant human IL-13Rα2 ECD (human, UniProt Q14627 27-343).
T1 construct: Interleukin-13 receptor alpha 2, human, extracellular domain; also called rhIL-13Rα2 ECD; Interleukin-13 receptor alpha 2; source: bought: Sino Biological (Cat. #10350-H08H-20)
T1 sequence (looked up): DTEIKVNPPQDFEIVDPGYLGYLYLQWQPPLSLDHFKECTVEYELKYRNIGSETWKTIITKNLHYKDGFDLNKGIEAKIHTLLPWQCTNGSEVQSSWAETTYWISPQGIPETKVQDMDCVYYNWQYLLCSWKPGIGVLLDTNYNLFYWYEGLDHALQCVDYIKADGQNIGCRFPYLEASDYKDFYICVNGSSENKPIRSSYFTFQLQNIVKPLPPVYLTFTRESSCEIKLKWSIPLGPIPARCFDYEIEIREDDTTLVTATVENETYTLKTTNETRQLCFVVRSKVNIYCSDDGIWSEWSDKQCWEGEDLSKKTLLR
In words: BLI; Octet K2; CHI3L1 or IL-13Rα2 ECD immobilised on AR2G biosensor by amine coupling; CD44v3 peptide (15.6, 31.1, 62.5, 125, 250 μM) in the mobile phase; 20 mM HEPES, 150 mM NaCl, 0.05% Tween-20, 1 mM MgCl2 (or 5 mM EDTA); pH 7.4 in the results (pH 7.5 in the methods); heterogeneous ligand model. Conditions: both partners purified. (In general: BLI is a label-free optical method that tracks binding on a fibre tip over time.)

In the next experiment the target is T2, recombinant human CHI3L1 (human, UniProt P36222 22-383).
T2 construct: Chitinase 3-like-1 (CHI3L1, YKL-40), human, recombinant; also called rhCHI3L1; RhCHI3L1; source: bought: R&D Systems (Cat. #2599-CH)
T2 sequence (P36222 22-383): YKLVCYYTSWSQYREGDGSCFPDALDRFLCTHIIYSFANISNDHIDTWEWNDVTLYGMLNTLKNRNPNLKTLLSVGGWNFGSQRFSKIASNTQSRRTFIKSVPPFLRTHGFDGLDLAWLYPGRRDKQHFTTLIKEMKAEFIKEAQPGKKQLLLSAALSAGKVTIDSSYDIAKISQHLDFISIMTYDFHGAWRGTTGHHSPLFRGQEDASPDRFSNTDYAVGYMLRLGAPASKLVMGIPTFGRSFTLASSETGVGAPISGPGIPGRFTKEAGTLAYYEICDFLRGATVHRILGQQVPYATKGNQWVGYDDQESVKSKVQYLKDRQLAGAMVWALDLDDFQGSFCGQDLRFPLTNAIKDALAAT
Described as above. Conditions: both partners purified.

B1: CD44v3 peptide (peptide)
peptide: GWEPNEENEDERDRHLSFSGSGIDDDEDFISSTI
notes: peptide fragment of the v3 domain of CD44; contains the SGSG heparan sulfate assembly motif; also called peptide fragment of CD44v3 domain; source: synthetic peptide (ChinaPeptides Co., Ltd.)
For B1, in experiment [1], the Kd was found to be 563 ± 15.9 µM, the koff amounted to 0.0162 s⁻¹ and the kon stood at 28.8 ± 7.66 M⁻¹ s⁻¹. In addition, in the experiment with recombinant human CHI3L1, the Kd is 443 ± 21.4 µM, the koff came out at 0.013 s⁻¹ and the kon was determined as 29.4 ± 1.39 M⁻¹ s⁻¹.
